US20240400614A1, “CLEAVABLE PEPTIDES AND METHODS OF USE THEREOF” (Bright Peak Therapeutics AG, priority 2023, published 2024)
Square brackets hold non-standard residues; d marks the D form. Ends that are not written are not given here. Tyr(3-NO2) = N[C@@H](Cc1ccc(O)c([N+](=O)[O-])c1)C(=O)O; Nle = CCCC[C@H](N)C(=O)O; 2Abz = Nc1ccccc1C(=O)O

Assays:
Type in all cases: biochemical
matriptase = target: T1, matriptase (Homo sapiens, UniProt Q9Y5Y6); assay: FRET peptide cleavage efficiency with matriptase; conditions: 200 uM linker, 1 ug/ml protease, 37° C., buffer B pH 9.0
T1 construct: purchased R&D Systems 3946-SEB
T1 sequence (Q9Y5Y6 615-855 limits assumed): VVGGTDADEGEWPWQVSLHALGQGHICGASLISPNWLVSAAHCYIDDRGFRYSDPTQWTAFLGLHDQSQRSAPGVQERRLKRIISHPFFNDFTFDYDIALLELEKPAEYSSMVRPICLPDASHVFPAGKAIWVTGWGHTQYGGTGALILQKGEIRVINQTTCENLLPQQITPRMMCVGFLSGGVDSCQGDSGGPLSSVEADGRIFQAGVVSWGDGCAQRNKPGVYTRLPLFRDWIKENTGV

MMP-2 = target: T2, MMP-2 (Homo sapiens, UniProt P08253); assay: FRET peptide cleavage efficiency with MMP-2; conditions: 200 uM linker, 1 ug/ml protease, 37° C., buffer C pH 7.5
T2 construct: purchased SIGMA PF023
T2 sequence (P08253 110-660): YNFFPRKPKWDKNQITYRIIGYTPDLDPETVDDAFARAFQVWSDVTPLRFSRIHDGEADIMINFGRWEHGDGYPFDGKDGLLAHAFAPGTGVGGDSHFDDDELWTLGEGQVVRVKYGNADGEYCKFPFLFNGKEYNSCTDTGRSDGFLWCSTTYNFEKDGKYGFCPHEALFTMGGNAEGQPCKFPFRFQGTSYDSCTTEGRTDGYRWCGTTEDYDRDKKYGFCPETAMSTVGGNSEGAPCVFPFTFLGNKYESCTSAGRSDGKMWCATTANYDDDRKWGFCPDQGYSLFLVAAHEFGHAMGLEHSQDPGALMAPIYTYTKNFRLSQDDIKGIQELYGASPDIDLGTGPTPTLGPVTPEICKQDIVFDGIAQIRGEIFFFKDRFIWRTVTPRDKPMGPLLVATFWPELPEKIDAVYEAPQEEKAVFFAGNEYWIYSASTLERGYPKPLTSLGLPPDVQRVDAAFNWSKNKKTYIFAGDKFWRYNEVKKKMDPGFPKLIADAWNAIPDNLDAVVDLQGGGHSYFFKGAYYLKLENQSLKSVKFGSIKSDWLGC

uPA = uPA (Homo sapiens, UniProt P00749); assay: FRET peptide cleavage efficiency with uPA; conditions: 200 uM linker, 1 ug/ml protease, 37° C., buffer A pH 8.5
Kallikrein-3 = Kallikrein-3 (Homo sapiens, UniProt P07288); assay: FRET peptide cleavage efficiency with Kallikrein-3; conditions: peptide 200 uM, Kallikrein-3 2 μg/ml, 37° C., pH 8
Chain of Kallikrein-3 (P07288 25-261, species assumed): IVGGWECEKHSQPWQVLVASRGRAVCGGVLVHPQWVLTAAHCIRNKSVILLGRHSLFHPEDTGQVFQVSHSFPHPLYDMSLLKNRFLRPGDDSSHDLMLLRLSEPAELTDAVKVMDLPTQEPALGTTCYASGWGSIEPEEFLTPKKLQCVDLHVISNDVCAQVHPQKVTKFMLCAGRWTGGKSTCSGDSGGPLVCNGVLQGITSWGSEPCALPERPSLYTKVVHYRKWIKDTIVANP

| Substance | % cleavage Matriptase t = 15 min (matriptase) | % cleavage Matriptase t = 60 min (matriptase) | % cleavage Matriptase t = 120 min (matriptase) | % cleavage MMP-2 t = 15 min (MMP-2) | % cleavage MMP-2 t = 60 min (MMP-2) | % cleavage MMP-2 t = 120 min (MMP-2) | % cleavage uPA t = 15 min (uPA) | % cleavage uPA t = 60 min (uPA) | % cleavage uPA t = 120 min (uPA) | Kallikrein-3 t = 1 h % cleavage (Kallikrein-3) | Kallikrein-3 t = 3 h % cleavage (Kallikrein-3) | Kallikrein-3 t = 6 h % cleavage (Kallikrein-3) | Kallikrein-3 t = 8 h % cleavage (Kallikrein-3) |
| --- | --- | --- | --- | --- | --- | --- | --- | --- | --- | --- | --- | --- | --- |
| KLYSSKQ ([2Abz]KLYSSKQ[Tyr(3-NO2)]-NH2) [LNK071] | 0% | 0% | 0% | 1% | 13% | 28% | 0% | 0% | 0% | 23% | 55% | 83% | 94% |
| RRLHYSL ([2Abz]RRLHYSL[Tyr(3-NO2)]-NH2) [LNK073] | 1% | 3% | 5% | 1% | 4% | 6% | 0% | 0% | 0% | 20% | 51% | 79% | 91% |
| SS-Nle-YSSAG ([2Abz]SS[Nle]YSSAG[Tyr(3-NO2)]-NH2) [LNK081] | 0% | 0% | 0% | 3% | 11% | 19% | 0% | 0% | 0% | 27% | 62% | 87% | 94% |
| ISQYSSAT ([2Abz]ISQYSSAT[Tyr(3-NO2)]-NH2) [LNK070] | 0% | 0% | 0% | 0% | 0% | 0% | 0% | 0% | 0% | 0% | 0% | 0% | 0% |
| RRLNYSL ([2Abz]RRLNYSL[Tyr(3-NO2)]-NH2) [LNK074] | 2% | 6% | 10% | 1% | 5% | 9% | 0% | 0% | 0% | 23% | 59% | 87% | 96% |
| KSKQHSL ([2Abz]KSKQHSL[Tyr(3-NO2)]-NH2) [LNK077] | 0% | 0% | 0% | 3% | 4% | 6% | 0% | 0% | 0% | 9% | 30% | 56% | 69% |
| GSSYYSGA ([2Abz]GSSYYSGA[Tyr(3-NO2)]-NH2) [LNK079] | 0% | 0% | 0% | 10% | 42% | 70% | 0% | 0% | 0% | 34% | 75% | 99% | 100% |
| GSSVYSGR ([2Abz]GSSVYSGR[Tyr(3-NO2)]-NH2) [LNK080] | 2% | 6% | 10% | 1% | 3% | 5% | 4% | 17% | 28% | 16% | 41% | 68% | 79% |

Other lines, results leading:

| % cleavage Matriptase t = 15 min (matriptase) | % cleavage Matriptase t = 60 min (matriptase) | % cleavage Matriptase t = 120 min (matriptase) | % cleavage MMP-2 t = 15 min (MMP-2) | % cleavage MMP-2 t = 60 min (MMP-2) | % cleavage MMP-2 t = 120 min (MMP-2) | % cleavage uPA t = 15 min (uPA) | % cleavage uPA t = 60 min (uPA) | % cleavage uPA t = 120 min (uPA) | Kallikrein-3 t = 1 h % cleavage (Kallikrein-3) | Kallikrein-3 t = 3 h % cleavage (Kallikrein-3) | Kallikrein-3 t = 6 h % cleavage (Kallikrein-3) | Kallikrein-3 t = 8 h % cleavage (Kallikrein-3) | Substance |
| --- | --- | --- | --- | --- | --- | --- | --- | --- | --- | --- | --- | --- | --- |
| 0% | 0% | 0% | 19% | 69% | 92% | 0% | 0% | 0% | 0% | 0% | 0% | 0% | RSSYYSL ([2Abz]RSSYYSL[Tyr(3-NO2)]-NH2) [LNK076] |
| 0% | 0% | 0% | 3% | 6% | 8% | 0% | 0% | 0% | 10% | 34% | 64% | 79% | HSSKLQL ([2Abz]HSSKLQL[Tyr(3-NO2)]-NH2) [LNK078] |
| 0% | 0% | 0% | 2% | 9% | 18% |  |  |  | 31% | 70% | 94% | 100% | SQLYSSPG ([2Abz]SQLYSSPG[Tyr(3-NO2)]-NH2) [LNK068] |
| 0% | 0% | 0% | 1% | 6% | 13% | 0% | 0% | 0% | 6% | 16% | 31% | 40% | SSQYSSPG ([2Abz]SSQYSSPG[Tyr(3-NO2)]-NH2) [LNK069] |
